Reference: the supplement of paper PMC10567573
± gives the standard deviation.

Assay: protein stability index of a GFP-peptide fusion (GPS, HEK-293T) (PSI 1-6); higher = more stable
[1] = treatment: DMSO, c terminus: a fixed tail appended
[2] = treatment: MLN4924 1 uM, 8 h, c terminus: a fixed tail appended
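Also: 24-mer peptide tiles fused after GFP, lentivirally expressed, FACS-sorted into six equal bins by GFP/DsRed ratio, decoded by Illumina sequencing, PSI is the read-weighted mean bin number.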

Q: With QYMNEGELRVLADTYDSVYLHPNS [HDAC6] as the sequence, how does the protein stability index [1] read?
A: The protein stability index was 2.83 ± 0.21.

Q: And the protein stability index [2]?
A: The protein stability index was 3.33 ± 0.52.

Q: For GQCLDSTDQLEFTVEPRLLVADLL [RTN2], which protein stability index [1] is on record?
A: Its protein stability index is 2.91 ± 0.2.

Q: And the protein stability index [2]?
A: Its protein stability index is 3 ± 0.26.

Q: Which protein stability index [1] does the source give for QDLCCRAIVSCTPVHLIDKLPLPV [RAB40C] here?
A: The protein stability index was 2.4 ± 0.24.

Q: And the protein stability index [2]?
A: The protein stability index was 2.16 ± 0.18.

Q: For EETIASLQMEVCRLKKEEEDRIVT [CEP70], which protein stability index [1] is on record?
A: Its protein stability index is 4.65 ± 0.072.

Q: What about the protein stability index [2] of the same sequence?
A: Its protein stability index is 4.8 ± 0.32.

Q: Which protein stability index [1] does the source give for VLNTQGQKTSGQHMIQGAGSLEKA [DLC1] here?
A: The protein stability index was 4.19 ± 0.42.

Q: And the protein stability index [2]?
A: The protein stability index was 4.23 ± 0.33.

Q: Which protein stability index [1] does the source give for GQLTGGYKPNPQIYVKLIEECTDL [OAS1] here?
A: The protein stability index was 2.99 ± 0.21.

Q: And the protein stability index [2]?
A: Its protein stability index is 3.06 ± 0.093.

Q: Which protein stability index (treatment: DMSO, c terminus: native) does the source give for RKRKKATEAIDSLRKSKRLRNRK [FBXO28] here?
A: The protein stability index was 4.97 ± 0.1.

Q: What about the protein stability index (treatment: MLN4924 1 uM, 8 h, c terminus: native) of the same sequence?
A: The protein stability index was 5.19 ± 0.12.

Q: With LKGGLQEVAEQLELERIGPQHQAG [CNOT7] as the sequence, how does the protein stability index [1] read?
A: Its protein stability index is 4.67 ± 0.14.

Q: And the protein stability index [2]?
A: Its protein stability index is 4.94 ± 0.22.

Q: For MTGAYNNFFRMFDRNTKRDVTLEA [PPP2R2C], which protein stability index [1] is on record?
A: The protein stability index was 3.03 ± 0.45.

Q: And the protein stability index [2]?
A: Its protein stability index is 3.14 ± 0.33.
